Experiment [1] has as its target SARS-COV-2 RBD-MMH (SARS-CoV-2). Put plainly: SPR 37C, run with dissociation at pH 5.0.
The target is the same in experiment [2]. Briefly: SPR 37C.
Experiment [3] shares this target. Put plainly: SPR 37C, run with dissociation at pH 7.4.
Experiment [4] has as its target human FcγR3a 176Val allotype receptor (human, UniProt P08637 17-254). Briefly: cell-based or functional assay.

B1: mAb15151 (antibody, V domains shown)
VH: QVQLVESGGGVVQPGRSLRLSCAASGFVFNSYGMHWVRQAPGKGLEWVAVLWYEGSKNYYADSVKGRFTISRDNSKNTLYLQMNSLRAEDTAVYYCARHGSGSFFGYYLDYWGQGTLVTVSS
VL: DIQMTQSPSSLSASVGDRVTITCRASHNINDFLNWYQQKPGKAPRLLIYAASSLQSGVPSRFSGSGSGTDFTLTISSLQPEDFATYYCQESYTTPPTFGQGTKLEIKR
A word on the koff: it is the first-order rate constant of dissociation. High values mean a short-lived complex, low ones a long-lived complex. For orientation: t½ means the time needed for the level to fall by half in the phase considered. Read a low t½ as rapid decline. As for B1, in the experiment with SARS-COV-2 RBD-MMH [1], the “RBD.mmh Bound at pH 7.4 (RU)” value is 231 RU, the koff stood at 0.00439 s⁻¹ and the t½ came to 2.6 min. For the same molecule, the “t½ Ratio of pH 7.4 to pH 5.0” value in the experiment with SARS-COV-2 RBD-MMH [2] amounted to 0.6. In addition, in the experiment with SARS-COV-2 RBD-MMH [3], the “RBD.mmh Bound at pH 7.4 (RU)” value was determined as 219 RU and the koff was 0.0068 s⁻¹.

B2: mAb13458 (antibody)
heavy: not shown
light: AIQMTQSPSSLSASVGDRVTITCRASQDIRNDLGWYQQKPGKAPKLLIYSASSLQTGVPSRFSGSGSGTDFTLTISSLHPEDFATYYCLQDYWYTWTFGQGTKVEIKRTVAAPSVFIFPPSDEQLKSGTASVVCLLNNFYPREAKVQWKVDNALQSGNSQESVTEQDSKDSTYSLSSTLTLSKADYEKHKVYACEVTHQGLSSPVTKSFNRGEC
Take B2: in experiment [4], the “EC50 (M), Jurkat/CD20/spike” value amounted to 1.43e-10 M; the “Fold induction, Jurkat CD20” value turned out to be 1.2 fold; the “Fold induction, Jurkat/CD20/spike” value was found to be 10.2 fold. Besides, in the experiment with SARS-COV-2 RBD-MMH [1], the “RBD.mmh Bound at pH 7.4 (RU)” value came out at 90.9 RU, the dissociation rate constant (koff) is 0.00401 s⁻¹ and the t½ worked out at 2.9 min. For the same molecule, in the experiment with SARS-COV-2 RBD-MMH [2], the “t½ Ratio of pH 7.4 to pH 5.0” value was 2.5. Moreover, in the experiment with SARS-COV-2 RBD-MMH [3], the “RBD.mmh Bound at pH 7.4 (RU)” value came to 96.5 RU and the koff stood at 0.00161 s⁻¹.

B3: mAb14230 (antibody)
heavy: not shown
light: EIVLTQSPGTLSLSPGERATLSCRASQTVISTYLAWYQQKPGQSPRLLIYGASSRATGIPDRFSGSGSGTDFTLTISRLEPEDFAVYYCQQYGSSPQLTFGGGTKVEIKRTVAAPSVFIFPPSDEQLKSGTASVVCLLNNFYPREAKVQWKVDNALQSGNSQESVTEQDSKDSTYSLSSTLTLSKADYEKHKVYACEVTHQGLSSPVTKSFNRGEC
In the case of B3, in experiment [4], the “EC50 (M), Jurkat/CD20/spike” value was 1.79e-10 M; the “Fold induction, Jurkat CD20” value was found to be 1.1 fold; the “Fold induction, Jurkat/CD20/spike” value was 9.8 fold. Further, in the experiment with SARS-COV-2 RBD-MMH [1], the “RBD.mmh Bound at pH 7.4 (RU)” value was 60.3 RU, the koff came to 0.00924 s⁻¹ and the t½ was 1.3 min. Also, the “t½ Ratio of pH 7.4 to pH 5.0” value with SARS-COV-2 RBD-MMH [2] was determined as 1.2. Also, in the experiment with SARS-COV-2 RBD-MMH [3], the “RBD.mmh Bound at pH 7.4 (RU)” value came to 67.6 RU and the koff is 0.00771 s⁻¹.

B4: mAb15170 (antibody, V domains shown)
VH: EVQLVESGGGLVQPGGSLRLSCAATGITVSSNYMSWVRQAPGKGLEWVSLIYSGGSTFYADSVKGRFTISRHNSKNTLYLQMSSLRAEDTAVYYCARDLVDFGMDVWGQGTTVTVSS
VL: DIQLTQSPSSLSASVGDRVTITCRASQGISNYLAWYQQKPGKAPKLLIYAASTLQSGVPSRFSGSGSGTDFTLTISSLQPEDFGTYYCQQLNSDSPTFGQGTKVEIKR
For the molecule B4, in the experiment with SARS-COV-2 RBD-MMH [1], the “RBD.mmh Bound at pH 7.4 (RU)” value was 141 RU, the koff is 6.62e-05 s⁻¹ and the t½ came to 174 min. In addition, in the experiment with SARS-COV-2 RBD-MMH [2], the “t½ Ratio of pH 7.4 to pH 5.0” value was 0.6. In the experiment with SARS-COV-2 RBD-MMH [3], the “RBD.mmh Bound at pH 7.4 (RU)” value was determined as 120 RU and the koff was 0.000107 s⁻¹.

B5: mAb15150 (antibody, V domains shown)
VH: EVQLVETGGGLIQPGGSLRLSCAAPGFIVSSNYMSWVRQAPGKGLEWVSLLYPGGSTYYADSVKGRFTISRDNSKNTLYLQMNSLRADDTAVYYCARVLPIVEDHFDYWGQGTLVTVSS
VL: DIQLTQSPSFLSASVGDRVTITCRASQGMSSYLAWYQKKPGKAPKLLIYGATILQSGVPSRFSGSGSGTEFTLTISSLQPEDFATYYCQQLNSDPLYMYTFGQGTKLEIKR
As to B5, in the experiment with SARS-COV-2 RBD-MMH [1], the “RBD.mmh Bound at pH 7.4 (RU)” value was 92.6 RU, the koff came to 1e-05 s⁻¹ and the t½ is 1160 min. Further, the “t½ Ratio of pH 7.4 to pH 5.0” value with SARS-COV-2 RBD-MMH [2] was 0.1. Moreover, in the experiment with SARS-COV-2 RBD-MMH [3], the “RBD.mmh Bound at pH 7.4 (RU)” value stood at 87.8 RU and the koff was found to be 0.000112 s⁻¹.

Source of the values: patent publication US20260069689A1 (Regeneron, published 2026).
